Data reported in US20160052996A1 (NEURIMMUNE, published 2016).
Substitutions are numbered along the chain they refer to.

B1: NI-307.29B1 (antibody, V domains shown)
VH: EVQLVESGGGLVKPGGSLRLSCAASGITFQYYAMNWVRQAPGKGLEWVSSIGGRGDTTYYTDSVKGRFTISRDNSKSTLYLQMNSLRAEDTAVYYCAKEPFDSSGDHRGVFDYWGQGTLVTVSS
VL: QSVVTQPPSVSGAPGQRVTISCAGSRSNIGAGYDVNWYQQLPRTAPKLLIYDNTRRPSGVPARFSGSKSGSSASLTITGLQAEDEADYYCQSYDSKLNKVFGGGTKLTVL
B2: NI-307.43E8 (antibody, V domains shown)
VH: EVQLVESGGDVVQPGRSLRLSCAASGFAFSIYAMNWVRQAPGKGLEWVALISTSGTEHYADSVKGRFTISRDNSKNTLFLQINSLRVEDTAVYYCARDLDSTGYYENNYWGQGTLVTVSS
VL: DVVMTQSPLSSPVSLGQPASISCRSSHSLVHSNGDTYLSWLQQRPGQPPRLLIYKISNRFSGVPDRFSGSGAGTDFTLKISRVEAEDVGVYFCMQATSFPRTFGQGTKVEIK
B3: NI-307.45E10 (antibody, V domains shown)
VH: EVQLVESGGGLVQPGGSLRLSCAASGFSFRFYAMNWVRQAPGKGLEYVSGISGGGGTTYYADSVKGRFTISRDNSKNTLYLQMKSLRAEDTAIYYCAKDQSYCSGAGCHPYYLDYWGQGTLVTVSS
VL: SYVLTQPPSVSVAPGQTARITCGGNNIGSKSVHWYQQKPGQAPVVVVYDDSGRPSGMPERFSGSNSGNTATLTISRVEAGDEADYYCQVWDSSSDHLYVFGTGTKVTVL
B4: NI-307.105C7 (antibody, V domains shown)
VH: B3 VH with R30G, I51V, T57S, A106G, G107S
VL: B3 VL with M57I, L97P
B5: NI-307.59A7 (antibody, V domains shown)
VH: EVQLVESGGGLVQPGGSLRLSCAASGFTFSSYEMNWVRQAPGKGLEWVSYISSSGTNIYHADSVKGRFTISRDNAKNSLYLQMNSLRAEDTAVYYCARDGPSPRGHNYGHDYWGQGTLVTVSS
VL: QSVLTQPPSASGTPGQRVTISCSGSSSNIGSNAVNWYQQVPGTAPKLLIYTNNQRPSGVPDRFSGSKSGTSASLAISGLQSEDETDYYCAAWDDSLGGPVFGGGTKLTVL
B6: NI-307.57D4 (antibody, V domains shown)
VH: EVQLVESGGGLVQPGRSLRLSCAASGFTFDHYAMHWVRQVPGRGLEWVSGVTWNSGIIGYADSVKGRFTISRDNAKNSLYLQMTSLRAEDTALYYCAKGTNDFVSYGLDVWGQGTTVTVSS
VL: QSVLTQPPSVSGAPGQRVSISCTGTSSNLGAGFDVHWYQQIPRKAPELLIYGNSIRPSGVPDRFSGSKSGTSASLAITGLQAEDEADYYCQSYDSRLSGSVFGGGTKLTVL
B7: NI-307.27C2 (antibody, V domains shown)
VH: EVQLVESGGGLVKPGGSLRLSCAASGFTFSSYTMNWVRQAPGKGLQWVSSISSSSTYMYYGDSVKGRFTISRDNARNSLYLQMNSLRVEDTAVYYCARYAHDWNVDYWGQGTLVTVSS
VL: QSVLTQPPSASGTPGQRVTISCSGGSSNIGSNPVNWFQQFPGTAPKLLIYANTQRPSGVPDRFSGSKSGTSVSLAISGLQSEDEGDYHCAAWDDSLKGWVFGGGTKLTVL
B8: NI-307.56A8 (antibody, V domains shown)
VH: B7 VH with T33R, Q46E, T56S, M58I, R76K, N84S, V88A, V105I
VL: not shown
B9: NI-307.26A3 (antibody, V domains shown)
VH: EVQLVESGGVLVQPGGSLRLSCAASGFTFSSYAMTWVRQAPEKGLEWVSTIIGNGAYTYYADSVKGRFTISRDNSKNTLILQMNSLRADDAAVYYCAKGTELAPYYYYFALDVWGQGTTVTVSS
VL: EIVLTQSPGTLSLSPGERATLSCRASQSISSSHLAWYQQKPGQAPRLLIYGASSRATGIPDRFSGGGSGTDFTLTITRLEPEDFAVYYCQQYGSSPYTFGQGTKLEIK
B10: NI-307.53B11 (antibody, V domains shown)
VH: EVQLVQSGAEVKKPGESLKISCKGSGYSFTSYWIGWVRQMPGKGLEWMGIIYPGDSDTRYSPSFQGQVTISADKSITTAYLQWSSLKASDTALYYCARRGSGSFSNYDFWGQGTLVTVSS
VL: QSALTQPRSVSGSPGQSVTISCTGTSSDVGAYNYVSWYQQHPVKAPKLMIYDVSKRPSGVPDRFSGSRSGNTASLTISGLQADDEADYYCCSYAGTYTVLFGGGTKLTVL
B11: NI-307.72F7 (antibody, V domains shown)
VH: EVQLVESGGGLVQPGGSLRLSCAASGFTFSSYEMNWVRQAPGKGLEWISYISSRGSTIHYADSVKGRFTISRDDAKNSLYLQMNSLRAEDTAIYYCARDRYDFWSGCIKGCYYGMDVWGQGSTVTVSS
VL: EIVLTQSPGTLSLSPGQRATLSCRASQSISSSYLAWYQQRRGQAPRLLIYGASSRATGIPDRFSGSGSGTDFTLTISRLEPEDFAVYYCQHYGTTLTFGQGTKVDIK
B12: NI-307.47B11 (antibody, V domains shown)
VH: EVQLVESGGGLVKPGGSLRLSCAASGFTFSDYYMNWIRQAPGKGLEWLSCISSSGNTIYYADSVKGRFTISRDNAKNSLYLQMNSLRAEDTAVYYCARDLDKAATGRPYFDYWGQGTLVTVSS
VL: not shown
B13: NI-307.98H1 (antibody, V domains shown)
VH: QLQLQESGPGLVKPSQTLSLTCAVSGASISSGTYYWGWIRQHPGKGLEWIGYIYPSGSTYYNPSLKSRVIISLDTSKSQFSLNLSSVTAADTAVYYCARDYYDSSGHMGGYYHYAMDVWGQGTTVTVSS
VL: DIQLTQSPSSLSASVGDRVTITCRASQSISSHLNWYQQKPGKVPKLLIYAASTLQSGVPSRFSGSGSGTDFTLAISSLQPADFATYYCQQSYSTPRTFGQGTKVDIK
B14: NI-307.72F10 (antibody, V domains shown)
VH: EVQLVESGGGVVQPGRSLRLSCATSGFTFDDYAMHWVRQAPGKGLEWVSGLTWSSSGVGYADSVKGRFTISRDNAKNSLYLQMNSLRAEDTALYYCAKGSGEWLRLGQDYWGQGTLVTVSS
VL: QSVLTQPPSVSGTPGQRVTISCTGSSSNIGAGYDVHWYQQLPGTAPKLLIYDNSNRPSGVPDRFSGSKSGTSASLAITGLQAEDEAHYYCQSFDSSLSGSVFGGGTKLAVL
B15: NI-307.105A6 (antibody, V domains shown)
VH: EVQLVESGGGLVQPGRSLRLSCAASGFTFDDYAMHWVRQAPGKGLEWVSGITWNSGSIGYADSVKGRFTISRDNAKNSLYLQMNSLSAEDTALYYCAKGARDYLSYGMDVWGQGTTVTVSS
VL: B14 VL with L4V, T13A, Y51F, D52S, S54T, N55I, H87N, F93Y, A109T
B16: NI-307.27C11 (antibody, V domains shown)
VH: QVQLQESGPGLVKPSGTLSLTCAVSGDSISSSNWWSWVRQPPGKGLEWIGEIYHSGGTKYNPSLKSRVTISVDKSKNHFSLKLRSVTAADTAVYYCARNRWFDNNRGGYYYYGMDVWGQGTTVTVSS
VL: DIQMTQSPSSLSASVGDRVTITCRASQGISSYLNWYQQKPGKAPKLLISATSDLQSGVPSRFSGSGSGTDFTLTISSLQPEDFATYYCQQSYSTPYTFGQGTKLEIK
B17: NI-307.50H4 (antibody, V domains shown)
VH: B16 VH with G45R, T122M
VL: B16 VL with S26G, S31T, K45N, S49Y, S93N, T94N, L104V
B18: NI-307.43A11 (antibody, V domains shown)
VH: QVQLQESGPGLVKPSGTLSLTCAVTGGSISSSNWWSWVRQSPGKGLEWIGEIHHDGNLNYNPLLKSRVSMSLDRSKNQFSLKLTSVTAADTAVYYCARWDFFFDSSYYIRGFDLWGQGTMVTVSS
VL: ETTLTQSPGTLSLSPGERVTLSCRASQSVDRNYLAWYQQKPGQSPRLLIYSASRRATGIPDRFSGSGSGTDFTLTISRLEPEDFVVYYCQQYGGSPPITFGQGTRLEIK
B19: NI-307.3G4 (antibody, V domains shown)
VH: QVQLVQSGAELKKPGAAVKVSCQASGYNFLSYGINWVRQIPGQGLQWLGWISTYDGTMNYDQKPDNRVTVTTDTSSSTVYLELRGLRSDDTGVYYCVRDRCAGAGCSHSLGYWGQGTLVTVSS
VL: DIQMTQSPSALSASVGDRVTISCRASQNINTQLNWYQEKPGKAPELLIYGAFNLQSGAPSTFSGSGSGTDFTLTITSLQPEDFASYYCQQGFHAPYTFGRGTKVDIK
B20: NI-307.6A2 (antibody, V domains shown)
VH: QVQLQESGPGLVKPSETLSLTCAVSGGSVSSSYWYSWVRQLPGKGLEWIGEIFHTGDTNYNPSLESRVTISIDTSKNQLSLDVTSATAADTAVYYCARDYCTDSGCDSDALDVWGHGTMVTVSS
VL: QSALTQPASVSGSPGQSITISCTGTTKDVGNYNLVSWYQQHPGKAPRLVIYEVSERPSGVSNRFSGSKSGNTASLTISGLQAEDEADYHCCSYAGSGTSVFGGGTKVTVL
B21: NI-307.20F5 (antibody, V domains shown)
VH: EVQLVESGGGVVQPGTSLRLSCAASGFSFNKYGVHWVRQAPGKGLEWVANIWYDGTNPFYADFVKGRFVISRDTSKNTIYLQMNRLRAEDTAVYYCARDAFCGGDCYGGLLHGLDVWGQGTTVTVSS
VL: DVVMTQSPLSLPVTPGEPASISCRSSQSLLHSNGLNYLDWYLQKPGQSPQLLIYLGSNRAPGVPDRFSGSGSGTDFTLKISRVEAEDVGVYYCLQALQTPAFGQGTKVEIK
B22: NI-307.19F10 (antibody, V domains shown)
VH: EVQLVESGGGLVQPGGSVSLSCAASGFTFPVYWMHWVRQAPEKGLMWVSRISPDGTIVDYAGSVKGRFTVSRDNAKNILYLQIQRLTAEDTAVYFCTKDFDVASGFWGQGTLVTVSS
VL: QSALTQPPSASGSPGQSVTISCTGSKSDVGTCHFVSWYQQHPGKVPKLVIYEGNKRPSGVPDRFSASKSGNTASLTISGLQPGDEADYYCSTCAGPNNYVFGTGTKVTVL
B23: NI-307.24F3 (antibody, V domains shown)
VH: QVQLQESGGGVVQPGRSLRLSCAASGFSFNRYGMHWVRQAPGKGLEWLAVISNDGVNTHYADSVKGRFTISRDNSKSTLYLQASSLRVEDTAVYYCAGYYYGSGTSLFFYWGQGTLVTVSS
VL: EIVLTQSPDSLAVSLGERATINCKSSQTVLYSSNNQNYLAWYQQKPGQPPKLLLYWASTRESGVPDRFSGSGSGTDFTLTISSLQPEDVAVYYCQQYYTAPYTFGQGTKVEIK

biological target: T1, JCV VP1 VLP (JC virus (JCV), Mad-1 strain, UniProt P03089 1-354); experiment: direct ELISA, plate coated with antigen at 5 µg/ml in reassociation buffer (VLP); EC50 by non-linear regression (GraphPad Prism)
T1 construct: also called JCV VP1 VLPs; JCV VP1 (coating with reassociation buffer)

Binder	EC50
B1	0.076 nM
B2	0.64 nM
B3	0.024 nM
B4	0.04 nM
B5	0.066 nM
B6	0.053 nM
B7	0.052 nM
B8	0.041 nM
B9	0.049 nM
B10	0.064 nM
B11	0.019 nM
B12	0.048 nM
B13	0.086 nM
B14	0.031 nM
B15	0.069 nM
B16	0.042 nM
B17	0.055 nM

biological target: T2, BSA (Sigma-Aldrich) (bovine, UniProt P02769 25-607); experiment: direct ELISA
T2 construct: also called bovine serum albumin
T2 sequence (P02769 25-607 limits assumed): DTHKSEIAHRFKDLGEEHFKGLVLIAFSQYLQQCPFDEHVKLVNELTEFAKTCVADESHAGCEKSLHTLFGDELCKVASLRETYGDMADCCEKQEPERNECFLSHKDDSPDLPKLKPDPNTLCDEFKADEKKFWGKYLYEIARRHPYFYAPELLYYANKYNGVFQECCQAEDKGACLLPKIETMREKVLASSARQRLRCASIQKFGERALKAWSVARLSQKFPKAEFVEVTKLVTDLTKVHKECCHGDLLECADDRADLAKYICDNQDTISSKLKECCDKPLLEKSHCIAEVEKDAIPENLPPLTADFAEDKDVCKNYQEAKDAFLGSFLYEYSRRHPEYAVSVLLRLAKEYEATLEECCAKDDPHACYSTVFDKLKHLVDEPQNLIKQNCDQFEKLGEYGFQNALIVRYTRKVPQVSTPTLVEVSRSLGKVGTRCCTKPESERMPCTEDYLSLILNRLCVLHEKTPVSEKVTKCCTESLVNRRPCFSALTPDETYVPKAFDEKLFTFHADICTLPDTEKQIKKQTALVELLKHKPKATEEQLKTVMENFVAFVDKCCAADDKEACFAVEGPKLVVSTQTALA

Binder	binding result
B18	no binding
B19	no binding
B20	no binding
B21	no binding
B22	no binding

biological target: T1, JCV VP1 VLP; experiment: direct ELISA

Binder	EC50
B18	6.15 nM
B19	28.2 nM
B23	6.95 nM
B20	1.39 nM
B22	3.41 nM
